Results on two proteins are retold here after article PMC2789240, “Comparative structural, kinetic and inhibitor studies of Trypanosoma brucei trypanothione reductase with T. cruzi^” (Molecular and Biochemical Parasitology, 2010).

Substrate in data set [1]: N[C@@H](CCC(=O)N[C@H]1CSSC[C@H](NC(=O)CC[C@H](N)C(=O)O)C(=O)NCC(=O)NCCCNCCCCNC(=O)CNC1=O)C(=O)O
As to the kind of experiment: 412 nm DTNB-coupled trypanothione reductase assay (IC50, Km). It counts as biochemical, Trypanosoma cruzi. To be noted: other: saturating NADPH; pH 7.4; 25.0 °C.

Substrate in data set [2]: N[C@@H](CCC(=O)N[C@H]1CSSC[C@H](NC(=O)CC[C@H](N)C(=O)O)C(=O)NCC(=O)NCCCNCCCCNC(=O)CNC1=O)C(=O)O
The data set can be described thus: 340 nm NADPH oxidation trypanothione reductase assay. The format is biochemical, Trypanosoma cruzi. To be noted: other: 340 nm assay; pH 7.4; 25.0 °C. As to the method: TryR was assayed spectrophotometrically either by monitoring the trypanothione-dependent oxidation of NADPH at 340 nm, or by the reduction of 5,5′-dithio-bis(2-nitrobenzoic acid) (DTNB) at 412 nm (see Fig. 1B). Assays at 340 nm were carried out at 25 °C in 500 μl volume acrylic cuvettes and changes in absorbance monitored with a UV-1601 PC spectrophotometer (Shimadzu). The standard assay mixture contained 40 mM HEPES pH 7.4, 1 mM EDTA, ∼10 mU ml^−1 TryR, 150 μM NADPH and 100 μM T(S)2. Assays at 412 nm were carried out in 96-well plates (Polysorp, Nunc) at room temperature in a volume of 200 μl. Changes in absorbance were monitored in a SpectraMax 340pc plate reader (Molecular Devices). The standard assay mixture contained 40 mM HEPES pH 7.4, 1 mM EDTA, ∼10 mU ml^−1 TryR, 150 μM NADPH, 6 μM T(S)2 and 50 μM DTNB. All assays were initiated by addition of the T(S)2. Data was collected using SoftMax Pro (molecular devices) and UVProbe 2 (Shimadzu) software, processed and analysed using Excel 2002 (Microsoft) and GraFit 5 (Erithacus Software). NADPH stock solutions were measured spectrophotometrically at 340 nm using an absorption coefficient of 6.22 × 10^3 M^−1 cm^−1[16]. The concentration of T(S)2 stock solutions were determined by measuring the oxidation of NADPH in the presence of excess TryR.
Km values with respect to T(S)2 were determined for TbTryR in both assays using purified recombinant T. cruzi TryR for comparison. Determinations for each enzyme were carried out in three independent experiments and a weighted mean calculated.

One may read the Km as the concentration of substrate that gives half-maximal velocity. The kcat is the number of substrate molecules converted per active site and unit of time at saturation. By kcat/Km is commonly meant the turnover number divided by the Michaelis constant.

B1: TcTryR (recombinant T. cruzi trypanothione reductase) (Trypanosoma cruzi) (protein)
chain: MMSKIFDLVVIGAGSGGLEAAWNAATLYKKRVAVIDVQMVHGPPFFSALGGTCVNVGCVPKKLMVTGAQYMEHLRESAGFGWEFDRTTLRAEWKKLIAVKDEAVLNINKSYEEMFRDTEGLEFFLGWGSLESKNVVNVRESADPASAVKERLETENILLASGSWPHMPNIPGIEHCISSNEAFYLPEPPRRVLTVGGGFISVEFAGIFNAYKPKDGQVTLCYRGEMILRGFDHTLREELTKQLTANGIQILTKENPAKVELNADGSKSVTFESGKKMDFDLVMMAIGRSPRTKDLQLQNAGVMIKNGGVQVDEYSRTNVSNIYAIGDVTNRVMLTPVAINEAAALVDTVFGTNPRKTDHTRVASAVFSIPPIGTCGLIEEVASKRYEVVAVYLSSFTPLMHNISGSKYKTFVAKIITNHSDGTVLGVHLLGDNAPEIIQGVGICLKLNAKISDFYNTIGVHPTSAEELCSMRTPSYYYVKGEKMEKPSEASL
notes: made in house
In the case of B1, in data set [1], the Km came to 10.4 ± 0.3 µM.

B2: TcTryR (Trypanosoma cruzi) (protein)
chain: MMSKIFDLVVIGAGSGGLEAAWNAATLYKKRVAVIDVQMVHGPPFFSALGGTCVNVGCVPKKLMVTGAQYMEHLRESAGFGWEFDRTTLRAEWKKLIAVKDEAVLNINKSYEEMFRDTEGLEFFLGWGSLESKNVVNVRESADPASAVKERLETENILLASGSWPHMPNIPGIEHCISSNEAFYLPEPPRRVLTVGGGFISVEFAGIFNAYKPKDGQVTLCYRGEMILRGFDHTLREELTKQLTANGIQILTKENPAKVELNADGSKSVTFESGKKMDFDLVMMAIGRSPRTKDLQLQNAGVMIKNGGVQVDEYSRTNVSNIYAIGDVTNRVMLTPVAINEAAALVDTVFGTNPRKTDHTRVASAVFSIPPIGTCGLIEEVASKRYEVVAVYLSSFTPLMHNISGSKYKTFVAKIITNHSDGTVLGVHLLGDNAPEIIQGVGICLKLNAKISDFYNTIGVHPTSAEELCSMRTPSYYYVKGEKMEKPSEASL
notes: made in house
As for B2, in data set [2], the Km is 29.6 ± 2.8 µM, the kcat was found to be 77 ± 8 s⁻¹ and the catalytic efficiency (kcat/Km) stood at 2.6e+06 M⁻¹ s⁻¹.
